One test concerns the target T1, HLA-A*02:01 molecule.
T1 construct: MHC class I molecule on T2 cells (ATCC); also called product of an HLA-A*02:01 gene; allele A*02:01
The test is described as follows: flow cytometry, T2 cells.

A further test concerns the target T2, HLA-A*24:02 molecule.
T2 construct: MHC class I molecule on C1R-A24 cells, endogenous peptide and b2m stripped at pH 3.3, purified b2m added back; also called product of an HLA-A*24:02 gene; allele A*24:02
Briefly: flow cytometry, C1R-A24 cells.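 Further: Read-out was the amount of peptide–MHC complex on each cell, taken as the fluorescence intensity of a bound fluorescent antibody.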

The text below walks through data of patent US20250236642A1 (NEC, published 2025).

Excerpt for HLA-A*24:02 molecule: Thereafter, the number of MHC-peps for each C1R-A24 cell (proportional to a fluorescence intensity of the fluorescent antibody) was quantitatively measured using a fluorescence cell analyzer FACScan (Becton-Dickinson).

In the case of ATLAPAVLL (synthetic 9-mer derived from EVC1) [peptide of SEQ ID NO: 10], in the test with HLA-A*02:01 molecule, the “log Kd” value was -5.56. Moreover, in the test with HLA-A*24:02 molecule, the “log10 Kd (M)” value is -5.2.
Consider AVLAPAVLL (synthetic 9-mer derived from EVC1) [peptide of SEQ ID NO: 27], for which the “log Kd” value with HLA-A*02:01 molecule was -5.15. The “log10 Kd (M)” value in the test with HLA-A*24:02 molecule was determined as 4.81.
For the molecule ISAYRTCWI (synthetic 9-mer derived from Casp-8) [peptide of SEQ ID NO: 34], in the test with HLA-A*24:02 molecule, the “log10 Kd (M)” value is -5.
Turning to LLLFSAAAL (synthetic 9-mer derived from CADM1) [peptide of SEQ ID NO: 1], the “log Kd” value with HLA-A*02:01 molecule was -6.06. For the same molecule, in the test with HLA-A*24:02 molecule, the “log10 Kd (M)” value is -4.96.
On to GRVMQIDGV (synthetic 9-mer derived from Wnt5a) [peptide of SEQ ID NO: 68], for which, in the test with HLA-A*24:02 molecule, the “log10 Kd (M)” value was -4.63.
Take GSPDEFSND (synthetic 9-mer derived from Casp-8) [peptide of SEQ ID NO: 72]: the “log Kd” value with HLA-A*02:01 molecule is above -3. For the same molecule, the “log10 Kd (M)” value with HLA-A*24:02 molecule was above -3.
As to LPPARHSTI (synthetic 9-mer derived from c-Myb) [peptide of SEQ ID NO: 76], the “log Kd” value with HLA-A*02:01 molecule was above -3. Also, the “log10 Kd (M)” value with HLA-A*24:02 molecule was above -3.
Regarding THLDAGTVE (synthetic 9-mer derived from Casp-8) [peptide of SEQ ID NO: 75], in the test with HLA-A*02:01 molecule, the “log Kd” value is above -3. Besides, in the test with HLA-A*24:02 molecule, the “log10 Kd (M)” value is above -3.
In the case of VLPPARHST (synthetic 9-mer derived from c-Myb) [peptide of SEQ ID NO: 54], the “log Kd” value with HLA-A*02:01 molecule is -5.11.
With YVYDPPTTI (synthetic 9-mer derived from CADM1) [peptide of SEQ ID NO: 2], the “log Kd” value with HLA-A*02:01 molecule was -6.16. In addition, in the test with HLA-A*24:02 molecule, the “log10 Kd (M)” value is -6.23.
The corresponding values for YLYDPPTTI (synthetic 9-mer derived from CADM1) [peptide of SEQ ID NO: 4] are -6.23 and -6.16.
For YTYDPPTTI (synthetic 9-mer derived from CADM1) [peptide of SEQ ID NO: 3], in that order: -5.47 and -5.51.
In the case of CDLSSFEFF (synthetic 9-mer derived from c-Myb) [peptide of SEQ ID NO: 58], in the test with HLA-A*24:02 molecule, the “log10 Kd (M)” value was -4.1.
For the molecule ALPKIRARV (synthetic 9-mer derived from EVC2) [peptide of SEQ ID NO: 12], the “log Kd” value with HLA-A*02:01 molecule is -5.66. In addition, the “log10 Kd (M)” value in the test with HLA-A*24:02 molecule was -6.18.

B1: peptide of SEQ ID NO: 66 (peptide)
peptide: VFGRVMQID
notes: synthetic 9-mer derived from Wnt5a; also called A15
Take B1: the “log10 Kd (M)” value in the test with HLA-A*24:02 molecule is -5.41.
On the same count and under the same terms, for AYRTCWIFS (synthetic 9-mer derived from Casp-8) [peptide of SEQ ID NO: 49] the value was -5.42.
Same read-out and setting: with EAIDGYITL (synthetic 9-mer; also called H1) [peptide of SEQ ID NO: 47] the figure was -5.54; with SSLDPPKVL (synthetic 9-mer derived from c-Myb) [peptide of SEQ ID NO: 55], -5.35.
As for LMEEHGATL (synthetic 9-mer derived from EVC2) [peptide of SEQ ID NO: 13], the “log Kd” value in the test with HLA-A*02:01 molecule was -4.92. Further, the “log10 Kd (M)” value in the test with HLA-A*24:02 molecule is -5.22.
For the molecule LTEEHGATL (synthetic 9-mer derived from EVC2) [peptide of SEQ ID NO: 42], the “log Kd” value with HLA-A*02:01 molecule was -4.09.
On the same count and under the same terms, for LIEEHGATL (synthetic 9-mer derived from EVC2) [peptide of SEQ ID NO: 40] the value was -4.5.
Consider LHEEHGATL (synthetic 9-mer derived from EVC2) [peptide of SEQ ID NO: 79], for which the “log Kd” value with HLA-A*02:01 molecule was above -3. In addition, the “log10 Kd (M)” value in the test with HLA-A*24:02 molecule was above -3.
In the case of LVEEHGATL (synthetic 9-mer derived from EVC2) [peptide of SEQ ID NO: 43], the “log Kd” value in the test with HLA-A*02:01 molecule is -4.18.
The same measure, in the same setting: with LLEEHGATL (synthetic 9-mer derived from EVC2) [peptide of SEQ ID NO: 41] the figure was -5.6.
Consider ASPSHMTSM (synthetic 9-mer derived from Helios) [peptide of SEQ ID NO: 81], for which the “log Kd” value with HLA-A*02:01 molecule was above -3. The “log10 Kd (M)” value with HLA-A*24:02 molecule was above -3.
For KFLEAFHEV (synthetic 9-mer derived from EVC1) [peptide of SEQ ID NO: 8], in the test with HLA-A*02:01 molecule, the “log Kd” value is -5.93. Further, in the test with HLA-A*24:02 molecule, the “log10 Kd (M)” value was -6.88.
For STGESAQTS (synthetic 9-mer derived from Casp-8) [peptide of SEQ ID NO: 71], the “log Kd” value in the test with HLA-A*02:01 molecule is above -3. For the same molecule, in the test with HLA-A*24:02 molecule, the “log10 Kd (M)” value was above -3.
Consider SSFEFFEEA (synthetic 9-mer derived from c-Myb) [peptide of SEQ ID NO: 37], for which, in the test with HLA-A*02:01 molecule, the “log Kd” value is -6.49.
Regarding TVLVPPRNL (synthetic 9-mer derived from CADM1) [peptide of SEQ ID NO: 48], in the test with HLA-A*24:02 molecule, the “log10 Kd (M)” value is -8.27.
For AQAPPTAQL (synthetic 9-mer derived from c-Myb) [peptide of SEQ ID NO: 5], the “log Kd” value with HLA-A*02:01 molecule is -6.02. For the same molecule, the “log10 Kd (M)” value with HLA-A*24:02 molecule was -5.75.
The corresponding values for ALAPPTAQL (synthetic 9-mer derived from c-Myb) [peptide of SEQ ID NO: 6] are -6.58 and -5.33.
For ATAPPTAQL (synthetic 9-mer derived from c-Myb) [peptide of SEQ ID NO: 25], in that order: -5 and -4.54.
Take GYITCERPF (synthetic 9-mer derived from Helios) [peptide of SEQ ID NO: 65]: the “log10 Kd (M)” value with HLA-A*24:02 molecule was -6.52.
For SPDEFSNDF (synthetic 9-mer derived from Casp-8) [peptide of SEQ ID NO: 73], the “log Kd” value with HLA-A*02:01 molecule was above -3. Also, the “log10 Kd (M)” value with HLA-A*24:02 molecule is above -3.
As for ARHSTIPLV (synthetic 9-mer derived from c-Myb) [peptide of SEQ ID NO: 77], the “log Kd” value with HLA-A*02:01 molecule is above -3. In addition, the “log10 Kd (M)” value in the test with HLA-A*24:02 molecule is above -3.
For the molecule GYITLGKPH (synthetic 9-mer derived from Helios) [peptide of SEQ ID NO: 80], in the test with HLA-A*02:01 molecule, the “log Kd” value is above -3. Moreover, the “log10 Kd (M)” value with HLA-A*24:02 molecule is above -3.
In the case of GILSDHQQS (synthetic 9-mer derived from Casp-8) [peptide of SEQ ID NO: 74], in the test with HLA-A*02:01 molecule, the “log Kd” value is above -3. Moreover, the “log10 Kd (M)” value with HLA-A*24:02 molecule is above -3.
For the molecule FIDSDSSSW (synthetic 9-mer derived from c-Myb) [peptide of SEQ ID NO: 57], in the test with HLA-A*24:02 molecule, the “log10 Kd (M)” value is -4.7.
With SLPNEKQTS (synthetic 9-mer derived from Casp-8) [peptide of SEQ ID NO: 69], the “log Kd” value with HLA-A*02:01 molecule is above -3. Further, the “log10 Kd (M)” value with HLA-A*24:02 molecule is above -3.
Regarding SLPFSPSQF (synthetic 9-mer derived from c-Myb) [peptide of SEQ ID NO: 56], the “log10 Kd (M)” value with HLA-A*24:02 molecule was -7.
Consider IFADVSSST (synthetic 9-mer derived from c-Myb) [peptide of SEQ ID NO: 78], for which, in the test with HLA-A*02:01 molecule, the “log Kd” value was above -3. Further, the “log10 Kd (M)” value in the test with HLA-A*24:02 molecule was above -3.
In the case of HMAKVIEFL (synthetic 9-mer derived from EVC1) [peptide of SEQ ID NO: 38], the “log Kd” value in the test with HLA-A*02:01 molecule is -5.69. For the same molecule, in the test with HLA-A*24:02 molecule, the “log10 Kd (M)” value was -6.03.
For ILSDHQQSQ (synthetic 9-mer derived from Casp-8) [peptide of SEQ ID NO: 70], in that order: above -3 and above -3.
Regarding CMIVHQGTI (synthetic 9-mer derived from c-Myb) [peptide of SEQ ID NO: 36], in the test with HLA-A*24:02 molecule, the “log10 Kd (M)” value is -5.54.
Same read-out and setting: with LPFSPSQFL (synthetic 9-mer derived from c-Myb) [peptide of SEQ ID NO: 60] the figure was -3.35; with YFFTVIFSF (synthetic 9-mer derived from Fas) [peptide of SEQ ID NO: 44], -6.77.

B2: peptide of SEQ ID NO: 16 (peptide)
peptide: LLITRKSFI
notes: synthetic 9-mer derived from Fas; also called A10
Regarding B2, in the test with HLA-A*02:01 molecule, the “log Kd” value was -5.13. Also, the “log10 Kd (M)” value with HLA-A*24:02 molecule was -6.64.
On to LAITRKSFI (synthetic 9-mer derived from Fas) [peptide of SEQ ID NO: 46], for which the “log10 Kd (M)” value with HLA-A*24:02 molecule is -5.12.
Take LMITRKSFI (synthetic 9-mer derived from Fas) [peptide of SEQ ID NO: 17]: in the test with HLA-A*02:01 molecule, the “log Kd” value was -5.2. In addition, the “log10 Kd (M)” value with HLA-A*24:02 molecule was -6.01.
LVITRKSFI (synthetic 9-mer derived from Fas) [peptide of SEQ ID NO: 30]: the “log Kd” value with HLA-A*02:01 molecule was -4.01. In addition, the “log10 Kd (M)” value with HLA-A*24:02 molecule was -5.46.
For LIITRKSFI (synthetic 9-mer derived from Fas) [peptide of SEQ ID NO: 29], in that order: -4.11 and -5.6.
Regarding LHITRKSFI (synthetic 9-mer derived from Fas) [peptide of SEQ ID NO: 63], in the test with HLA-A*24:02 molecule, the “log10 Kd (M)” value is -4.76.
Still for that read-out and setting: with LTITRKSFI (synthetic 9-mer derived from Fas) [peptide of SEQ ID NO: 45] the figure was -4.82.
Take ATGDCSSFI (synthetic 9-mer derived from c-Myb) [peptide of SEQ ID NO: 59]: in the test with HLA-A*02:01 molecule, the “log Kd” value is -4.08.
For the molecule HMTSSERPF (synthetic 9-mer derived from Helios) [peptide of SEQ ID NO: 64], the “log10 Kd (M)” value with HLA-A*24:02 molecule is -4.16.
Same read-out and setting: for SLLITRKSF (synthetic 9-mer derived from Fas) [peptide of SEQ ID NO: 62] the value was -5.84.
Consider FSNDFGQSL (synthetic 9-mer derived from Casp-8) [peptide of SEQ ID NO: 35], for which the “log Kd” value with HLA-A*02:01 molecule was -3.9.
For the molecule CLDEHQWQL (synthetic 9-mer derived from EVC1) [peptide of SEQ ID NO: 9], in the test with HLA-A*02:01 molecule, the “log Kd” value is -6.66. The “log10 Kd (M)” value with HLA-A*24:02 molecule is -5.87.
Take CTDEHQWQL (synthetic 9-mer derived from EVC1) [peptide of SEQ ID NO: 39]: the “log Kd” value in the test with HLA-A*02:01 molecule is -5.04.
CIDEHQWQL (synthetic 9-mer derived from EVC1) [peptide of SEQ ID NO: 28]: the “log Kd” value with HLA-A*02:01 molecule is -4.85. Moreover, the “log10 Kd (M)” value with HLA-A*24:02 molecule was -3.48.
